assay: soluble on expression in E. coli; label from the status in PepcDB or PDB records

| Sequence | soluble on expression in E. coli |
| --- | --- |
| MFKDFFNRTKKKKYLTVQDSKNNDVPAGIMTKCPKCKKIMYTKELAENLNVCFNCDHHIALTAYKRIEAISDEGSFTEFDKGMTSANPLDFPSYLEKIEKDQQKTGLKEAVVTGTAQLDGMKFGVAVMDSRFRMGSMGSVIGEKICRIIDYCTENRLPFILFSASGGARMQEGIISLMQMGKTSVSLKRHSDAGLLYISYLTHPTTGGVSASFASVGDINLSEPKALIGFAGRRVIEQTINEKLPDDFQTAEFLLEHGQLDKVVHRNNMRQTLSEILKIHQEVTK | not soluble |
| MFKHDCQFEDLRIIAQRVNPLDPTWNEWTLVACQKCKMLKEWQHHSEEQMHGGDLHITALPTHDYLHHIYGIVESDVDLILTHQKKARRYNRYTNAVEEHDV | not soluble |
| MFKVLAEAFASARLRLGAILFSPQSLAFLPAFCLGLYWYGGETALMITALVFPVFFLVARAKLAETVTTSRQDSVLGVMQPDGFQDIVAARFREARAGGLISTVFQIEIDDHTSLVERHGQRAAEVISTTSADRIAAVLRDRDAVTHLDTFKYAVCLEPVRQMDLELCIQLAGRIQAALEEPIALDATAVCITSSVGFCQQTKVLSRSGEAWLAAAGHALREAHLNGPGAIRAYSEKMQQKSEIRAELREEVAQALEKGQIKPWFQPQISTDTGLVTGFEALARWNHPKRGMVPPGAFLTAIEQAGMLEKLAEVMIFHAFTALKAWDSAGVCVPQVGVNFAGPELSNPKLVDKIIWELDRFDLAPERLAVEVLETVVANSPDDTITRNINGLSKLGCRIDLDDFGTGHASISSIRRFSVSRIKIDRSFVIKADRDPEQQRMISAILTMAERLEVETLAEGVESVGEHALLAQLGCDHVQGFGIGKPMPFDQTLDWIASHNAKLQATPQILPNKLRLEHHHHHH | soluble |
| MFLAGAFIAVGSLYAQSSDAEWQAGVAKLKETIQTNPAQANEEAEQLIKGKNKKNVELLVAIGEVYLKAGKLPEAQEYAALAKKVNGKSALASVLEGDIAFEQKNAGLASQKYEEAIYFDPSCTEAYLRYADIYKSANAALAIEKLEQLKAQEPSNTAVDKKLAEIYYLKNDFSKAAEAYSRFAMGPTATEEDLVKYAFALFLNHDFEKSLEVANMGLKKNARHAAFNRLAMYNYTDLKRFDEAIKAADAFFTESDKADYSYLDYMYYGHLLEALKKYDEAVGQYEKAIQLDPTKTDLYKNISSAYEQKNDYKKAISAYQKYYTSLDKLEHHHHHH | soluble |
| MFLDEHINRNFDKLNDNDLHIAHFINTHIDECKNMKIQDLAQFTHASNATIHRFTRKLGFDGYSDFKSYLKFESNKTHQLPSNSIDSFKQEIDSTFSYLERVDYQLLTEKMHTA | not soluble |
| MFLDMLSLIRGQKIKLNDALQGQSSFYIQIHYQAAFDLDIASFGLDSQYRLSDERYMTFYNQPETPCQAVRLIENQNKCSRFLVDLAKLPATIQHLVLTAAIDGQNIMSQLQQVTVQILNLQLQPIAELKLDASIFDQERATMLIEIYRKEGIWRLAAIGQGFNAGLAALIQHFGGEVAEEPTAQQTTPVAPQSNIDLKKKLSLQKAEKTGNASIIDLTKKSLVQLEKKKLLGVTARVALVLDASGSMDGQYRRGDVQKVVNRLMPLAIHFDDDGSFECWAFAAETTQLDDVTLSNVNDFINSTQRGWKNWQVGARYNEEIPAIEAVINYFQKFQDQIPTYVLFISDGGVGSRRQMQKILSQAAKLPIFWQFVGIGGRNYGALEKLDEMSGRIVDNCNFFSLDRIDGVSDERLYELLLQEFPDWLIAARQHQIVRNLEHHHHHH | not soluble |
| MFLSVVTVAFRNYEGVVKTWRSLRNLARDPGLSFEWIVVDGGSEDGTREFLQKRHGEFNLRFISEKDRGIYDAMNKGIALAQGRYTLFLNSGDAFHDDAALFVRQLARQKGEAMYIGDALLDFGGGHKIRRKAKPGYYIYHSLPASHQAIFFPTAALKKYPYDLQYHVSSDYALAARLYKAGYPFRRINGLVSEFSMGGVSTSNNLELCQDAKNVQRKILRVPGFWAQLSYLLRLKTTGKTKARYNKVLEHHHHHH | not soluble |
| MFNCLGMGNRDFIEGASGATWVDLVLEGDSCLTIMANDKPTLDVRMINIEASQLAEVRSYCYHASVTDISTVARCPTTGEAHNEKRADSSYVCKQGFTDRGWGNGCGFFGKGSIDTCAKFSCTSKAIGRTIQPENIKYKVGIFVHGTTTSENHGNYSAQVGASQAAKFTVTPNAPSVTLKLGDYGEVTLDCEPRSGLNTEAFYVMTVGSKSFLVHREWFHDLALPWTSPSSTAWRNRELLMEFEGAHATKQSVVALGSQEGGLHQALAGAIVVEYSSSVMLTSGHLKCRLKMDKLALKGTTYGMCTEKFSFAKNPVDTGHGTVVIELSYSGSDGPCKIPIVSVASLNDMTPVGRLVTVNPFVATSSANSKVLVEMEPPFGDSYIVVGRGDKQINHHWHKAGSTLGKA | not soluble |
| MFNCLGTSNRDFVEGASGATWIDLVLEGGSCVTVMAPEKPTLDFKVMKMEATELATVRKYCYEATLDTLSTVARCPTTGEAHNTKRSDPTFVCKRDVVDRGWGNGCGLFGKGSIDTCAKFTCKNKATGKTILRENIKYEVAIFVHGSTDSTSHGNYFEQIGKNQAARFTISPQAPSFTANMGEYGTVTIDCEARSGINTEDYYVFTVKEKSWLVNRDWFHDLNLPWTSPATTDWRNRETLVEFEEPHATKQTVVALGSQEGALHTALAGAIPATVSSSTLTLQSGHLKCRAKLDKVKIKGTTYGMCDSAFTFSKNPTDTGHGTVIVELQYTGSNGPCRVPISVTANLMDLTPVGRLVTVNPFISTGGANNKVMIEVEPPFGDSYIVVGRGTTQINYHWHKEGSSIGKA | not soluble |
| MFNEKDQLAVDTLRALSIDTIEKANSGHPGLPMGAAPMAYTLWTRHLNFNPQSKDYFNRDRFVLSAGHGSALLYSLLHVSGSLELEELKQFRQWGSKTPGHPEYRHTDGVEVTTGPLGQGFAMSVGLALAEDHLAGKFNKEGYNVVDHYTYVLASDGDLMEGISHEAASFAGHNKLSKLVVLYDSNDISLDGELNKAFSENTKARFEAYGWNYLLVKDGNDLEEIDKAITTAKSQEGPTIIEVKTTIGFGSPNKAGTNGVHGAPLGEVERKLTFENYGLDPEKRFNVSEEVYEIFQNTMLKRANEDESQWNSLLEKYAETYPELAEEFKLAISGKLPKNYKDELPRFELGHNGASRADSGTVIQAISKTVPSFFGGSADLAGSNKSNVNDATDYSSETPEGKNVWFGVREFAMGAAVNGMAAHGGLHPYGATFFVFSDYLKPALRLSSIMGLNATFIFTHDSIAVGEDGPTHEPIEQLAGLRAIPNMNVIRPADGNETRVAWEVALESESTPTSLVLTRQNLPVLDVPEDVVEEGVRKGAYTVYGSEETPEFLLLASGSEVSLAVEAAKDLEKQGKSVRVVSMPNWNAFEQQSEEYKESVIPSSVTKRVAIEMASPLGWHKYVGTAGKVIAIDGFGASAPGDLVVEKYGFTKENILNQVMSL | not soluble |
| MFNKASFLTRLVASSVRVSEAAGGLIKNVMAGGDLKIIDKSEHGSGYDPQTEADRRAQYCIVQSLQKHFKNINIIGEEEDTTACPEIEMGFSADVLQMERLMSTELKNIQENDVVVWVDPLDGTSEVALAVKNKNMALLEQVTVLIGIAYKGRPVAGIIHQPYHEKLGRTVWAIQGCGVHGVVPATGNAQKIVVTTRSHLSESVSNALEALKTRNLADSVEKVGGAGFKVLKVLEGCAAYVFASAGCKKWDTCAVEAVLTAAGGTLTDISGRDIRYEPGVQLNNTGGVLATASWVKHKDYIDTIPQEIKNMLPEISSKK | not soluble |
| MFNLGSMFNLGPSEPVVGKASILLECPAGKAFKFIGENLFLNYPRWSPEVKELEQLTHGPVCLGTIARQVRVDQGHRSESKFRITIYEPDRRVAFAGISDPFRCVYELLDEQNSGSTRLLFKFELLEIQMIMRPFEPMIRTAVQDGAERTVQNIKRLVESEPGALEHHHHHH | soluble |
| MFNRIMVPVDGSKGAVKALEKGVGLQQLTGAELYILCVFKHHSLLEASLSMARPEQLDIPDDALKDYATEIAVQAKTRATELGVPADKVRAFVKGGRPSRTIVRFARKRECDLVVIGAQGTNGDKSLLLGSVAQRVAGSAHCPVLVV | soluble |
| MFPAQEEADRTVFVGNLEARVREEILYELFLQAGPLTKVTICKDREGKPKSFGFVCFKHPESVSYAIALLNGIRLYGRPINVQYRFGSSRSSEPANQSFESCVKINSHNYRNEEMLVGRSSFPMQYFPINNTSLPQEYFLFQKMQWHVYNPVLQLPYYEMTAPLPNSASVSSSLNHVPDLEAGPSSYKWTHQQPSDSDLYQMTAPLPNSASVSSSLNHVPDLEAGPSSYKWTHQQPSDSDLYQMNKRKRQKQTSDSDSSTDNNRGNECSQKFRKSKKKKRY | soluble |
| MFQGCYGGTQKHEPDLHIVLERAWQQGLQKVIVTAGCLKDVDEALELASKDERIYTTVGTHPTRCEEFVPDPEGYYDQLRSRIKANRTKVRAVGECGLDYDRLHFCAQETQRLYFEKQLDLAAEFKLPLFLHMRNAAEDFMGILERNRNKIEECGGGVVHSFTGTLEEAQRILAFGGLYIGFNGCSLKTDENAEVVRKLPNDRIMLETDCPWCGIRPSHAGHKHVTTKFPTVKKKEKWTAESLIDGRCEPCQISQVLESIAGIKQEPKEQLAALYYQNTLDLFFGTGESKELEHHHHHH | not soluble |
| MFQIGEHNMILIYKLTLTKLTEDELKKDFATIPSWATHLDLSNNRLGETSNEELIRVFAKIPGWISHIKLRFNNLGQKNGKDLAKAFAKIPISVTTLDLGSNQLGKKSGEELANAFAGIPTSVTRLILSQNELYKRTGGELATAFAKIPSSVTHLVLVNNGLGEKNGKELATAFANIPSSVTTLDLALNDLSKIKSTELAVIFTKIPTSVTQLDLSHNNLNKKSGKNLAKIFANIPTSVTNLNLSCNELGKKSGKGLAAAFAKIPTSVTDLNIEDNDLDNRTGKELAMAFAHIPAFVNTLRLGDNNLGNKSGEELAEIFAKIPLSVTSLDLRYNELGKRNGKELAIAFAKIPSSVTNLNLKFNHLGKITGEELAMAFANIPTNVDSLVLANNELGAKSGEELAKIFSKIPASITSLNMGNDWFAVIEKLSQQKMVLSTITHVVIDYSSAQEHSAKLKLLATVFPNLNKVTFMDIHGNNALAGQNPIEEAKWLKLCGIKNSVPSLLSQALFFVAKNKEHRSIQDYPSLLPKELTDSISSLLKC | not soluble |
| MFQKILIANRGEIAVRIMKTCQKLGIRTVAIYSEADENALHVKMANEAYLVGGPRVQESYLNLEKIIEIAKKTNAEAIHPGYGLLSENPSFPVRCKEEGIVFIGPSEEIITKMGSKIESRIAMQAADVPVVPGITTNIETAEEAIEIAKQIGYPLMLKASAGGGGIGMQLMETEQTLTKAFESNKTRAQNFFGNGEMYLERYIADAHHIEIQLLADTHGNTVYLWERECSVQRRNQKVIEEAPSPFLDEGTRKAMGEIAVQAAKALGYTNAGTVEFLVDEQKNFYFLEMNTRLQVEHPVTEEITGLDLVEQQLLIAYGEKLSFTQDDIKRSGHAIEARIYAEDPKTFFPSPGKITDLTLPTNVRIDHFLENQVTITPFYDPMIAKVIAHGETREEAISKLHDALEELKVEGIKTNTPMLLQVLEDDVFKSGIYTTGFVTKQLVKK | not soluble |
| MFQPQDDQDACYDNSIHYTDSLLGQVFELLKDRRASVMYFADHGLERDPTKKNVYFHGGREASQQAYHVPMFIWYSPVLGDGVDRTTENNIFSTAYNNYLINAWMGVTKPEQPQTLEEVIAHYKGDSRVVDANHDVFDYVMLRKEFTEDKQGNPTPEGQG | not soluble |
| MFQPVTQKRLTNVSVVRMRKGGKRFEIACYPNMVMAYREGHVRDLDEVIQVEDVFENVSKGKLAANADLERCFGTRDRHAVLLQILLHGDLQVSDRERQYQSTRKLHEIASVVAAKTISRETKKPLPVGLIEKALREIHFAVQPNRPAKAQALEVIPLLRAQSGLDLERARLRLRIHVPSQRDAKAVKARLEPLQQGETDGTHSSSRSDSVRMKDGSAAVESESEEWLPGGALLWTVQADPGAFREIEEIVQRETNQQGIVEVASLRVLDDEDESILS | not soluble |
| MFREESRSVPVEEGEVYDVTIQDIARQGDGIARIEGFVIFVPGTKVGDEVRIKVERVLPKFAFASVVELEHHHHHH | not soluble |
